Here are results for eight molecules from publication PMC6255862, “A quaternary tetramer assembly inhibits the deubiquitinating activity of USP25” (Nature Communications, 2018).

Values joined by “and” are separate entries in the source; they are usually repeats but may differ in a detail not shown here. Equal entries are not always repeated.

One data set addresses USP25 Y454F (human) (UniProt Q9UHP3). The data set is described as follows: SEC; oligomer state of USP25 point mutants (Supplementary Figures 6 and 11, not shown); by the methods all USP25 constructs were loaded on a Superdex 16 column in 100 mM NaCl, 20 mM Tris-HCl pH 8.0, 1 mM β-mercaptoethanol and run on native PAGE. For orientation: Size exclusion chromatography separates by hydrodynamic size, large species first.

The target of the next data set is USP25 Y454E (human) (UniProt Q9UHP3). The description is as above.
For data set [1], the target named is USP25CD (human USP25 with the NTD and the CTD deleted) (human). Nature of the data set: SEC; analytical gel filtration of all truncation constructs run in parallel under identical conditions, Superdex 16 column, 100 mM NaCl, 20 mM Tris-HCl pH 8.0, 1 mM β-mercaptoethanol; oligomer from elution time against expected molecular weight.
Data set [2] addresses USP25CD ΔIL (USP25 catalytic domain construct with the IL-loop, Cys465 to Pro537, replaced by Gly-Ser-Gly) (human). The data set is described as above.
Data set [3] deals with the molecule itself. The description is as above.
In data set [4] the target is T1, USP25FL (full-length human USP25) (human), Q9UHP3.
T1 chain: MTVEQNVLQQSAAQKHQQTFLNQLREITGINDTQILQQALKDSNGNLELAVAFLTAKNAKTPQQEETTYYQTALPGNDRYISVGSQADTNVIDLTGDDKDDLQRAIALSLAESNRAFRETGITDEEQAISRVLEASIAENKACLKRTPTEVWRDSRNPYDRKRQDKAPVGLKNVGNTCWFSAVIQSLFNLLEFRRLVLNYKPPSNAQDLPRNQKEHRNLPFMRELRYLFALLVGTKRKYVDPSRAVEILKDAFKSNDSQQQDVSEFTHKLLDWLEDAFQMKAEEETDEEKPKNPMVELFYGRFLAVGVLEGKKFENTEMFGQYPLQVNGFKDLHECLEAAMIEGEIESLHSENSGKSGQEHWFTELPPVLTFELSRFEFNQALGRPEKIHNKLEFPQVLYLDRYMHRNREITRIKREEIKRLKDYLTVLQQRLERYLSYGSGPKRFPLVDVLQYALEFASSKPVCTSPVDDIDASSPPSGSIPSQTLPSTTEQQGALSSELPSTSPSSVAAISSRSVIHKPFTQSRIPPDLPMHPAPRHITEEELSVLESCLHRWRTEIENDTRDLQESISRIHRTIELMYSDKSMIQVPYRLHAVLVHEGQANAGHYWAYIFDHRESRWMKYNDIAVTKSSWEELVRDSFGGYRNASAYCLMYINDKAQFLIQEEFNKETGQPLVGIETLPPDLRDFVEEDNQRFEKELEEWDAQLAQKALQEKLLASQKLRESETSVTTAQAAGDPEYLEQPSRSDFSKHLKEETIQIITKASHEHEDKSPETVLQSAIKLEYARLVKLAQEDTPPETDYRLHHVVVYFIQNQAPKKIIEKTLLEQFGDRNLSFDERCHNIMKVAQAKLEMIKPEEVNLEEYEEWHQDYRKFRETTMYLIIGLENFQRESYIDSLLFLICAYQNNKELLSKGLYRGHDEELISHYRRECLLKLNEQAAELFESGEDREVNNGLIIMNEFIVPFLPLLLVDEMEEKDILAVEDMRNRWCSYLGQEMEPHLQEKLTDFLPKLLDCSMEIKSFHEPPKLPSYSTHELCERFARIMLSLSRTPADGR
Described as above. The following applies: remark: other sources report otherwise.

Data set [5] concerns the molecule itself. The data set is described as follows: SEC; purification of USP25NCD: preparative Superdex 200 gel filtration, anion exchange of the two peak fractions, analytical gel filtration (Superdex 16) of the dimer and tetramer fractions; 100 mM NaCl, 20 mM Tris-HCl pH 8.0, 1 mM β-mercaptoethanol.

As a reminder, the stoichiometry N is a count of units in the complex or per binding partner. On to “USP25 Y454F (from UniProt Q9UHP3 1-1055) (enzyme)”, for which the stoichiometry N with USP25 Y454F (human) was determined as 4.

As to “USP25 Y454E (from UniProt Q9UHP3 1-1055) (enzyme)”, the stoichiometry N in the data set with USP25 Y454E (human) came out at 2. In data set [1], “USP25CD (human USP25 with the NTD and the CTD deleted) (domain or fragment)” had a stoichiometry N of 4.

Turning to “USP25CD ΔIL (USP25 catalytic domain construct with the IL-loop, Cys465 to Pro537, replaced by Gly-Ser-Gly) (domain or fragment)”, the stoichiometry N in data set [2] was 2.

B1: USP25FL ΔIL (full-length USP25 with the IL-loop, Cys465 to Pro537, replaced by Gly-Ser-Gly) (enzyme, human)
chain: MTVEQNVLQQSAAQKHQQTFLNQLREITGINDTQILQQALKDSNGNLELAVAFLTAKNAKTPQQEETTYYQTALPGNDRYISVGSQADTNVIDLTGDDKDDLQRAIALSLAESNRAFRETGITDEEQAISRVLEASIAENKACLKRTPTEVWRDSRNPYDRKRQDKAPVGLKNVGNTCWFSAVIQSLFNLLEFRRLVLNYKPPSNAQDLPRNQKEHRNLPFMRELRYLFALLVGTKRKYVDPSRAVEILKDAFKSNDSQQQDVSEFTHKLLDWLEDAFQMKAEEETDEEKPKNPMVELFYGRFLAVGVLEGKKFENTEMFGQYPLQVNGFKDLHECLEAAMIEGEIESLHSENSGKSGQEHWFTELPPVLTFELSRFEFNQALGRPEKIHNKLEFPQVLYLDRYMHRNREITRIKREEIKRLKDYLTVLQQRLERYLSYGSGPKRFPLVDVLQYALEFASSKPVGSGRHITEEELSVLESCLHRWRTEIENDTRDLQESISRIHRTIELMYSDKSMIQVPYRLHAVLVHEGQANAGHYWAYIFDHRESRWMKYNDIAVTKSSWEELVRDSFGGYRNASAYCLMYINDKAQFLIQEEFNKETGQPLVGIETLPPDLRDFVEEDNQRFEKELEEWDAQLAQKALQEKLLASQKLRESETSVTTAQAAGDPEYLEQPSRSDFSKHLKEETIQIITKASHEHEDKSPETVLQSAIKLEYARLVKLAQEDTPPETDYRLHHVVVYFIQNQAPKKIIEKTLLEQFGDRNLSFDERCHNIMKVAQAKLEMIKPEEVNLEEYEEWHQDYRKFRETTMYLIIGLENFQRESYIDSLLFLICAYQNNKELLSKGLYRGHDEELISHYRRECLLKLNEQAAELFESGEDREVNNGLIIMNEFIVPFLPLLLVDEMEEKDILAVEDMRNRWCSYLGQEMEPHLQEKLTDFLPKLLDCSMEIKSFHEPPKLPSYSTHELCERFARIMLSLSRTPADGR
notes: USP25, human, from Met1 to the residue before the deletion (deletion from Cys465 to Pro537); three-amino-acid linker Gly-Ser-Gly in place of the deleted stretch; USP25, human, from the residue after the deletion to Arg1055; also called ΔIL USP25FL; not shown: Smt3, N-terminal, cleaved
Consider B1, for which the “stoichiometry N” value in data set [3] was 2.

B2: USP25FL (full-length human USP25), Q9UHP3 1-1055 (enzyme)
chain: MTVEQNVLQQSAAQKHQQTFLNQLREITGINDTQILQQALKDSNGNLELAVAFLTAKNAKTPQQEETTYYQTALPGNDRYISVGSQADTNVIDLTGDDKDDLQRAIALSLAESNRAFRETGITDEEQAISRVLEASIAENKACLKRTPTEVWRDSRNPYDRKRQDKAPVGLKNVGNTCWFSAVIQSLFNLLEFRRLVLNYKPPSNAQDLPRNQKEHRNLPFMRELRYLFALLVGTKRKYVDPSRAVEILKDAFKSNDSQQQDVSEFTHKLLDWLEDAFQMKAEEETDEEKPKNPMVELFYGRFLAVGVLEGKKFENTEMFGQYPLQVNGFKDLHECLEAAMIEGEIESLHSENSGKSGQEHWFTELPPVLTFELSRFEFNQALGRPEKIHNKLEFPQVLYLDRYMHRNREITRIKREEIKRLKDYLTVLQQRLERYLSYGSGPKRFPLVDVLQYALEFASSKPVCTSPVDDIDASSPPSGSIPSQTLPSTTEQQGALSSELPSTSPSSVAAISSRSVIHKPFTQSRIPPDLPMHPAPRHITEEELSVLESCLHRWRTEIENDTRDLQESISRIHRTIELMYSDKSMIQVPYRLHAVLVHEGQANAGHYWAYIFDHRESRWMKYNDIAVTKSSWEELVRDSFGGYRNASAYCLMYINDKAQFLIQEEFNKETGQPLVGIETLPPDLRDFVEEDNQRFEKELEEWDAQLAQKALQEKLLASQKLRESETSVTTAQAAGDPEYLEQPSRSDFSKHLKEETIQIITKASHEHEDKSPETVLQSAIKLEYARLVKLAQEDTPPETDYRLHHVVVYFIQNQAPKKIIEKTLLEQFGDRNLSFDERCHNIMKVAQAKLEMIKPEEVNLEEYEEWHQDYRKFRETTMYLIIGLENFQRESYIDSLLFLICAYQNNKELLSKGLYRGHDEELISHYRRECLLKLNEQAAELFESGEDREVNNGLIIMNEFIVPFLPLLLVDEMEEKDILAVEDMRNRWCSYLGQEMEPHLQEKLTDFLPKLLDCSMEIKSFHEPPKLPSYSTHELCERFARIMLSLSRTPADGR
For the molecule B2, the stoichiometry N in data set [4] was 4.

B3: USP25NCD ΔIL (USP25 18-714 with the IL-loop, Cys465 to Pro537, replaced by Gly-Ser-Gly) (enzyme, human)
chain: QTFLNQLREITGINDTQILQQALKDSNGNLELAVAFLTAKNAKTPQQEETTYYQTALPGNDRYISVGSQADTNVIDLTGDDKDDLQRAIALSLAESNRAFRETGITDEEQAISRVLEASIAENKACLKRTPTEVWRDSRNPYDRKRQDKAPVGLKNVGNTCWFSAVIQSLFNLLEFRRLVLNYKPPSNAQDLPRNQKEHRNLPFMRELRYLFALLVGTKRKYVDPSRAVEILKDAFKSNDSQQQDVSEFTHKLLDWLEDAFQMKAEEETDEEKPKNPMVELFYGRFLAVGVLEGKKFENTEMFGQYPLQVNGFKDLHECLEAAMIEGEIESLHSENSGKSGQEHWFTELPPVLTFELSRFEFNQALGRPEKIHNKLEFPQVLYLDRYMHRNREITRIKREEIKRLKDYLTVLQQRLERYLSYGSGPKRFPLVDVLQYALEFASSKPVGSGRHITEEELSVLESCLHRWRTEIENDTRDLQESISRIHRTIELMYSDKSMIQVPYRLHAVLVHEGQANAGHYWAYIFDHRESRWMKYNDIAVTKSSWEELVRDSFGGYRNASAYCLMYINDKAQFLIQEEFNKETGQPLVGIETLPPDLRDFVEEDNQRFEKELEEWDAQLAQKALQE
notes: USP25, human, from Gln18 to the residue before the deletion (deletion from Cys465 to Pro537); three-amino-acid linker Gly-Ser-Gly in place of the deleted stretch; USP25, human, from the residue after the deletion to Glu714; also called ΔIL USP25NCD; USP25NCD ∆IL; not shown: Smt3, N-terminal, cleaved
Take B3: the “stoichiometry N” value in data set [3] stood at 2.

B4: USP25NCD (human USP25, N-terminal domain and USP-like catalytic domain, Gln18 to Glu714) (enzyme, UniProt Q9UHP3 18-714, looked up)
chain: QTFLNQLREITGINDTQILQQALKDSNGNLELAVAFLTAKNAKTPQQEETTYYQTALPGNDRYISVGSQADTNVIDLTGDDKDDLQRAIALSLAESNRAFRETGITDEEQAISRVLEASIAENKACLKRTPTEVWRDSRNPYDRKRQDKAPVGLKNVGNTCWFSAVIQSLFNLLEFRRLVLNYKPPSNAQDLPRNQKEHRNLPFMRELRYLFALLVGTKRKYVDPSRAVEILKDAFKSNDSQQQDVSEFTHKLLDWLEDAFQMKAEEETDEEKPKNPMVELFYGRFLAVGVLEGKKFENTEMFGQYPLQVNGFKDLHECLEAAMIEGEIESLHSENSGKSGQEHWFTELPPVLTFELSRFEFNQALGRPEKIHNKLEFPQVLYLDRYMHRNREITRIKREEIKRLKDYLTVLQQRLERYLSYGSGPKRFPLVDVLQYALEFASSKPVCTSPVDDIDASSPPSGSIPSQTLPSTTEQQGALSSELPSTSPSSVAAISSRSVIHKPFTQSRIPPDLPMHPAPRHITEEELSVLESCLHRWRTEIENDTRDLQESISRIHRTIELMYSDKSMIQVPYRLHAVLVHEGQANAGHYWAYIFDHRESRWMKYNDIAVTKSSWEELVRDSFGGYRNASAYCLMYINDKAQFLIQEEFNKETGQPLVGIETLPPDLRDFVEEDNQRFEKELEEWDAQLAQKALQE
notes: USP25, human, residues 18-714 of the 1055-residue protein (Met1 to Arg1055); A His tag ahead of Smt3 is surmised from the Ni2+ purification; also called USP25NCD tetramer; USP25NCD dimer; not shown: Smt3, N-terminal, cleaved
In the case of B4, the “stoichiometry N” value in data set [5] is 2 and 4.
